According to article PMC11940188:

Key:
[1] = molecular target: Rho13 (Rhodonellum psychrophilum); test: SAXS; nominal 0.5 mg/mL enzyme (Ika2 0.51, Rho13 0.46, I3C6 0.46 mg/mL by Abs280), 25 °C, 1800 s; indirect Fourier transformation and fits to AlphaFold models; self-association
[2] = molecular target: Rho13 (Rhodonellum psychrophilum); test: SEC; Superdex-200 Increase, 0.5 mL/min, Ni-NTA eluates after PD-10 desalting; 100 mM HEPES, 150 mM NaCl, 2 mM CaCl2 pH 6.5 or 50 mM MOPS, 50 mM NaCl, 2 mM CaCl2 pH 7.5; calibrated with lysozyme, carbonic anhydrase and BSA; self-association, monomer and dimer
[3] = molecular target: Rho13 (Rhodonellum psychrophilum); test: SAXS; nominal 1 mg/mL enzyme (Ika2 1.00, Rho13 0.94, I3C6 0.87 mg/mL by Abs280), 25 °C, 1800 s; indirect Fourier transformation and fits to AlphaFold models; self-association

Rho13 (enzyme)
dimer concentration in the SAXS model fit [1]: 0.29 mg/mL | monomer concentration in the SAXS model fit [1]: 0.06 mg/mL | n-mers (SAXS model fit) [1]: 1.83 | n-mers (indirect Fourier transformation) [1]: 1.38 | share of the combined peak area, dimer peak [2]: 26% | stoichiometry N [2]: 2 | dimer concentration in the SAXS model fit [3]: 0.69 mg/mL | monomer concentration in the SAXS model fit [3]: 0.03 mg/mL | n-mers (SAXS model fit) [3]: 1.96 | n-mers (indirect Fourier transformation) [3]: 1.58
